Data from patent publication JP2023550785A (dated 2023).

Experiments:
[1] = target: T1, HCoV-HKU1 prefusion-stabilized spike (S) protein / S ectodomain trimer (human coronavirus HKU1, UniProt Q5MQD0 13-1300)
T1 sequence: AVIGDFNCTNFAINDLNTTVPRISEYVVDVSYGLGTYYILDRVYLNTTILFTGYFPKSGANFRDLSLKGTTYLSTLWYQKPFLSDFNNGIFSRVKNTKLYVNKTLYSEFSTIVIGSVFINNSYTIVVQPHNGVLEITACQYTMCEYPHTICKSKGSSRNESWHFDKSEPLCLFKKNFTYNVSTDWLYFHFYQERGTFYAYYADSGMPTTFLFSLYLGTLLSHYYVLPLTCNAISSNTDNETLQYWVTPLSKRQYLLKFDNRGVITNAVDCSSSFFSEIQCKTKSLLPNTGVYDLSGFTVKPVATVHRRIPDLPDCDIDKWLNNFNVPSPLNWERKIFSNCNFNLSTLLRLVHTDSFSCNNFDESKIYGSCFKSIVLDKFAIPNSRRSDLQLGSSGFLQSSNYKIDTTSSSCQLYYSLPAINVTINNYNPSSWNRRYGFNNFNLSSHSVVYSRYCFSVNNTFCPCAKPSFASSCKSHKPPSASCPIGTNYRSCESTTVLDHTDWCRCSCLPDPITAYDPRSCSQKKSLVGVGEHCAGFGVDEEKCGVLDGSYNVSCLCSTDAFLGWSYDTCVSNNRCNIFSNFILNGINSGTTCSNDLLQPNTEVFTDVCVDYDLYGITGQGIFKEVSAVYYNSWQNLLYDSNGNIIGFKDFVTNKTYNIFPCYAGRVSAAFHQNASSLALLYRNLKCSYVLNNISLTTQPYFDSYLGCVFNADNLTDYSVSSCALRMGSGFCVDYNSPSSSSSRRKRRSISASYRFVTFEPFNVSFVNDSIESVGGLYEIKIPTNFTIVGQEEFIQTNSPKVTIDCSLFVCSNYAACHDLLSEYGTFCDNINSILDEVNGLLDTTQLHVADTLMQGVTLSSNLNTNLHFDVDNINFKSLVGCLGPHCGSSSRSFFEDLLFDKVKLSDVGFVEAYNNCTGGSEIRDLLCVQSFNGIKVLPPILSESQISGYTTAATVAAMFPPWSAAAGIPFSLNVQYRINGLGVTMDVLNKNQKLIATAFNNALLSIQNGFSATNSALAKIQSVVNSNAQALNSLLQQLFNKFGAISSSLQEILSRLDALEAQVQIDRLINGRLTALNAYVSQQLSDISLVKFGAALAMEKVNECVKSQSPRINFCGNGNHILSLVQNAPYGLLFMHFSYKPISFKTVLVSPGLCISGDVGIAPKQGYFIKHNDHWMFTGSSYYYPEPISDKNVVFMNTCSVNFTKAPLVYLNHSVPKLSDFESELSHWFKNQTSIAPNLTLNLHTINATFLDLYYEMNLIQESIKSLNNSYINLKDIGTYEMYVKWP

[2] = target: T2, MERS-CoV (London1/2012) prefusion-stabilized spike (S) protein / S ectodomain trimer (MERS-CoV (London1/2012), UniProt K9N5Q8 18-1296)
T2 sequence: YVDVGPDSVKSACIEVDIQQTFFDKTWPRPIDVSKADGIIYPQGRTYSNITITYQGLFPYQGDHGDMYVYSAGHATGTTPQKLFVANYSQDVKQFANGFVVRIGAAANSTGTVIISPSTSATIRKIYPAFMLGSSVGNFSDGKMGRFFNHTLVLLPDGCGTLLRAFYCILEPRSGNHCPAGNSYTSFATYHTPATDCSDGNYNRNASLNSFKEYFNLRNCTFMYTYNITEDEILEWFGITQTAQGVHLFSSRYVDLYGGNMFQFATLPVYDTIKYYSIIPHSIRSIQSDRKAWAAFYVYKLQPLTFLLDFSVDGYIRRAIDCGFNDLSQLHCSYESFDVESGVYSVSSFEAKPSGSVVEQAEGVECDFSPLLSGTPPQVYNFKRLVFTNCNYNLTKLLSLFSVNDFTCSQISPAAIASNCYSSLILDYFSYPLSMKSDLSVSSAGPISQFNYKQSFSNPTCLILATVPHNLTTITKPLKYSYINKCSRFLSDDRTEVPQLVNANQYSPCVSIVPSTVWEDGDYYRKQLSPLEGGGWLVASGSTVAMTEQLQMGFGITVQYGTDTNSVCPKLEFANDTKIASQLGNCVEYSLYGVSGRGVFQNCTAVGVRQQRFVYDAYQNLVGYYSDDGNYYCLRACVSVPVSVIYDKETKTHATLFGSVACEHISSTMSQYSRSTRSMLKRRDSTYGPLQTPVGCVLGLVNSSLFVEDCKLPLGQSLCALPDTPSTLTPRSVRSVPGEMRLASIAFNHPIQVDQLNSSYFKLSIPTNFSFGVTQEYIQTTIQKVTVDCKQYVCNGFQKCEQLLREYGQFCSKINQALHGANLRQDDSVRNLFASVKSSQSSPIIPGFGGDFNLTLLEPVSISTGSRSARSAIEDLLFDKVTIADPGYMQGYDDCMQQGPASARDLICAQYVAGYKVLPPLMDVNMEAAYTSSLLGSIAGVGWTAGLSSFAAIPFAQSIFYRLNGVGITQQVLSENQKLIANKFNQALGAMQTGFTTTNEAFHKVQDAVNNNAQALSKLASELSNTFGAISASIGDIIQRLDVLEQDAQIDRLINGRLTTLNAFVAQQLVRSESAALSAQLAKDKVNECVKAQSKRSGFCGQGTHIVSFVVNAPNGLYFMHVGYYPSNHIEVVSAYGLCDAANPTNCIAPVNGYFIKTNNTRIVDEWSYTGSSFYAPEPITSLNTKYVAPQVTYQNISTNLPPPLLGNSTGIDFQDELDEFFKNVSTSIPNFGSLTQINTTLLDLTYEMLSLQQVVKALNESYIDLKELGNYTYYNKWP

[3] = target: SARS-CoV (Urbani strain) prefusion-stabilized spike (S) protein / S ectodomain trimer (SARS-CoV (Urbani strain), UniProt P59594 14-1195); assay: SPR (Biacore T200), S ectodomain trimer captured, Fab as analyte

B1: S2P6 Fab fragment (Fab, V domains shown)
VH: EVQLVQSGAEVKKPGASVKVSCKASGYTFTSQYMHWVRQAPGQGLEWIGIINPSGVHTSYAQKFQGRVTLTRDTSTSTLYMELSSLRSEDTAVYYCARGSPKGAFDYWGQGTLVTVSS
VL: not shown
[1]
  Kd: ~120 nM
[2]
  Kd: 12 nM
[3]
  Kd: 7 nM
